Results from the DeepSol protein solubility set.

assay: soluble on expression in E. coli; label from the status in PepcDB or PDB records

Sequence	soluble on expression in E. coli
MGSDKIHHHHHHMGIRILNDLMLDKSALLFGVSKYLEKGIITGNILIHKSLLAELEKESNDGLVSAEIALDEVKKLKDITERILVNFEIVGENSKKGEANELSREYCLEKGCIMVTADETQKKICDVMGIQYSFLQPLEQSLSFESFFDDETMSLHIKEDTVPRAKKGKPGNWKFVNLSNKPMLSVDVKRIANEIINGVRFIKGSFIEIERKGSLIIQLGNYRVVITRPPLSDGWEITITRPVVRKRLEDYGLDERLIKRLEERAEGIIIAGAPGMGKTTFAQALSEYYMRLGKIVKTIESPRDMHLPPEITQYSKNYAEIGELHDILLLSRPDYTVYDEMRNDEDFKLYIDLRLAGIGMVGVVHATSPIDAIHRFVNRVDIGTIPNILDTIIFINSGNVSKVYTLEITVKVPAGLKEADLARPVVEIKDLVTGNTEYEIYVFGEQTMIVPVNRGITLNNMEFKISKIVNNIIPKATVKYEDGEYVIVIPKEEIGKYNRKLVQRLKRLEKKNNIKIKIKLSD	not soluble
MGSDKIHHHHHHMGNKTSQKVLLELLKDRDRWVSGNEIADSLGVTRETIWKNINLLKKRGHQIQSQKNLGYKYESSSKLDEVVINFYKNKSVDHVAVEEQVDSTQMYAKNYLATHQVEKAFAVISEQQTQGYGRRGRSFYSPKEQGLYFSIVIPKPTFEINQVGLITTGVAYVIAQTFKDFFPEREFKLKWVNDILMNRRKVAGIITEAITEVESASTQAFVIGVGINLTTPEFPEELQQKAGAIVAKNEPNIDRNLIAAQLINTIVDNWQNYLDGSFLSEYRRMSIVIGKPVTLQVGTKQVKGIATDINEYGNIVVKLDDGQVKAFNNGEITKVNLDW	not soluble
MGSDKIHHHHHHMHFTPALKPGKLLKRYKRFLADVQLEDGSEITVHCPNTGSMRNCLFPGETLWFSTSSNTKRKYAHTWELMTTPTGALIGIHSGNANALVEEALNKGIITELTGYDSLRREVKYGDENSRIDILLECAQKTACYIEVKSCTLQENGQGYFPDAVSLRGQKHLRELMHMASLGHRAVLLFVVQHTDIMSVAPAAHIDPEYANLLKKSVLSGVEVLAYRCEISPSEIHLAQSCPVRV	not soluble
MGSDKIHHHHHHMHIAIMSRNKNLYSTSRLKEAAEARGHVIKIVDPLKCYMNINMNAPSIHVRGEELPKFDAVIPRIGASVTFYGTAVLRQFEMMGTHPLNESVAITRSRDKLRSLQLLSRKNIGLPVTGFASKPADIPDLLDMVGGAPCVIKLLEGTQGIGVVLAETRKAAESVIEAFMGLKANIMVQEYIAEAGGADIRCFVIGDKVIAAMKRQALPGEFRSNLHRGGSASIVKLTPEERSTALRAAKTMGLNVAGVDILRSKHGPLVMEVNSSPGLEGIEKATGIDVAEKIIQFIEKNVKSTSSKTKGVG	not soluble
MGSDKIHHHHHHMHLLFVTSIVPDGALASGYEIANAAIIAALRRAGARVTVIGFTWPGKVTADPENTVVLGEIDVRTESASALRKLAWVRKAMLSGLTFASVKLRAVSEHEVEAALEQAGPFDGYVLNSVQFAGAFEKLFEDKPSIFVAHNVEHLSARENEAAAGGVFQRLLFRREARLLKVVEERLCRRARFVFTLAEEDRAALGVASNDRSAVLPLVTGARAPVRNGPRRIDCDAALIGTWTWQPNRIGLDWFLGKVVPHLRPGFRIRIAGHMPSGVTSAHPGVEFVGRVADARAFVCGAAVIPLISTAGSGVQLKTIETFELGLPSVATSRSLRGIGHRPDNCVVTDDPAGFARALEAAAADIRDVDGGAFYRQQVKALDAAIRYGLSKLGAVRQEVLA	not soluble
MGSDKIHHHHHHMHYDHVLDKRMLRRSFEQAAAGYDQSAVLQREICDRMLSRLEYIKYVPARILDAGSGTGYGTRKLIERYPAAEIMPMDIALTMHRCARMAISEQIPGWQRWLPFRRHWPRDYICADIEQLPLGEASIGMIWSNLAIQWCNDLRQTFAEAYRVLENGGLLMFSTFGPDTLKELRQAFKSADSFSHVNRFTDMHDIGDMLVNCGFSLPVMDMEYITLTYEDVRGVMQDLKAIGARNVTQGRRRGLTGKAAWQQVIERYEALRQDGRLPATYEVVYGHAWKPESRQVQLKPETRRKLGLEP	not soluble
MGSDKIHHHHHHMHYRQYGRTGRLISRFSLGLMRCLDSAAQLEAVLDAAWRLGINHFETAQSYGPSEAYLAQALHSLQLPRDQVIITTKILPDRDPQQMVEAVLRSRDRLGIDSIDCLALHGLNQPEHLQQAIAALPALQTLQAEGVFQHLGFSSHGDRELILEAIATDAFDFVSLHYYLLFQRHAPVIEAAAAKNLGIFIISPVDKGGLLHQPSAQLIEDCQPFSPLALNYRFLLSDRRITTLSFGAAKAEELAVLQDFVDADQPLSLEEAEAIARLEQVRQQRLGRDYCQQCYACLPCPEAINIPEVLRLRNLAIAHDMQAYGRYRYRMFENAGHWFPGQRGSRCTDCGDCLPRCPHHLPIADLVRDADQRLAGAPRRRLWGD	not soluble
MGSDKIHHHHHHMIAHPCYVDKFSQQVHFHAIDFARSRWNIFLLWQLKNLIQQIQPAIVHAQAGKAAELIARIKPFLSGPKFITTVHGTKKNKSAYLAGDAVIAVSQALTQGIPESKAHVVYNGVYPQPVLTTENKEKLLQSIQKDFTELDTSKRVVMCIGRLEPVKNISLLIESMQQIDANLWIVGDGSLRASLEKQVSELNMQNRVAFLGFRTDARDLVQLADIVVLSSDREGFPLVMVEALQADKAMASTKVNGVIEWLPEQYLAEIGDTQGLAKAIEYALQPEAQNDFGPLYAKAKAELTVPAMAEQTLNIYKGLLKT	not soluble
MGSDKIHHHHHHMIDHLIATDIGGRGSEKLYILYKSKDPDYFSKSLDLLIKSDEVLIVSDFPIPPTMTPETDGPPGALALALGLAELGKKATILTQEIVKEGLRDFYPRITTKFPNIRKFSCLVSIETPGRNFKGEYLSFSGLKISVRPYDDLFLRALELGIPTIGIGDGGNEIGMGNLGLNDERFSVVRVNELIIAGVSNWGAYGLVAGLSMRVGQNLLRDYNEEDVVKSLVDVGLIDGITKKREPTVDGLPLSLHGKILELLIEIVNIKTP	not soluble
MGSDKIHHHHHHMIELKNVSMIFNPGTVNENQAISNISLKVREGDFITVIGSNGAGKSTLFNLIAGTITPSSGSIFLNDRNITREPEYKRARYIGRIFQNPLLGTASTMSLEDNMMITYKKGFKWLKRSLNHKMREYFRTELVQLKMGLEDRMKENLALFSGGQRQALTLLMMVLSRPDLILLDEHTAALDPKNAQIVLELTDKFIREYNLTAMMITHNMSHAIEYGNRLLMMDKGEIIFEAEGEEKRALTVEKLIDKFHQIRHTSFENDRTLLSDD	not soluble
MGSDKIHHHHHHMIEYYNFNKSELEKHSRIPLIVKKNNEEIFISLALEMVELIKENNEKNEKTVIICPVGPVGQYPHFVRLVNQFKIDLSNVWFINMDEYLLEDLHWIDVVHPLSFRGFMQKNVYSQIHPTLIMSEEQRIFPDPLDIDSISNKIKELGKIDLCIGGIGLNGHIAFNEPDSTLTVQEFLKLGSRVLPISVETKVMNGLTVLKGAVEEVPNYCVTIGMSEIFQAKKIRLAVFRDWHHAVIRKTVCSKPDTGFPSTLMQIHTNCSIYLNESLAN	not soluble
MGSDKIHHHHHHMIFYCALSIGRVFSATIKTCPNVHQVHHVVLTIEMSINMQNNEQTEYKTVRGLTRGLMLLNMLNKLDGGASVGLLAELSGLHRTTVRRLLETLQEEGYVRRSPSDDSFRLTIKVRQLSEGFRDEQWISALAAPLLGDLLREVVWPTDVSTLDVDAMVVRETTHRFSRLSFHRAMVGRRLPLLKTASGLTWLAFCPEQDRKELIEMLASRPGDDYQLAREPLKLEAILARARKEGYGQNYRGWDQEEKIASIAVPLRSEQRVIGCLNLVYMASAMTIEQAAEKHLPALQRVAKQIEEGVESQAILVAGRRSGMHLR	not soluble
MGSDKIHHHHHHMIGIEQYQKIQEYKELGLAQTKTAKALGITYSSVSKYWNMSEEDYVREAEQEKYHMDNYRQYILEQLKICPQIRDTNVYLKLMEAFPDLQVKRATFYRYMKALREQHGYQHTSKRKISPREVSPPGYEAQADFGQYKLKDMYGRIVRVYFFCMVLSYSRMKFVCFSPDPFTTKTGIKVHNYAFQCVWQV	not soluble
MGSDKIHHHHHHMIGLNCKPLYIENAENQLYNPTLNIKTTMTYLETAAQFYSEVAQTPQVGLCCVQSTPLQLPGLKIPLSMQEMNYGCGTTVHPTELGKQPTVLYVGVGGGLEALQFAYFSRRPGAVIAVDPVAAMREAAARNLEMALTDNPWFESSFVEIREGDAFNLPVADGSVDIVAQNCLFNIFEPEDLTRALKEAYRVLKCGGRLQMSDPIATSPIPAHLQQDERLRAMCLSGALTYEEYTQRIIDAGFGQIEIRARRPYRLLDSQTYNLETHLLLESLDSVSFKVPIPEDGACIFTGKTAIYAGCEDFFDDKAGHILQRGIPATVCDKTAAKLATVKPKEVIITDSTWHYNGGGCC	not soluble
MGSDKIHHHHHHMIGVAEVVLDVRDLRIYYRTLYGYVKAVDGVSFDIKRGEILGIAGESGCGKSTLGNGLILLKPPMKYMGGEAILDGKNIMALSPKELRKVRYEKISIIPQYAMDAMNPTKKIKQIIDDLLHEHGESFERKKDVIEERLEIVNLGKKVLNMYPIELSGGMKQRMVMVISTLMNPDVLIADEITSALDVSSQRSVIQMLYEMREKEIMGSLAFITHDLSVLYQIADKVMVLYAGRVAEISPMEDIIQEPLHPYTKMLLSSLPKIGVRYSQTKLKGIPGYPPSLLNIGPGCRFRDRCPYAFEKCEQDPPVFDVDGRKVSCWLFERGDAN	not soluble
MGSDKIHHHHHHMIHVAHHYEMRHPTADIQETSMSSAQEERLRFIDFRLMFLGDVSRQDLTDRFGISEPAATRDLTQYRERCAANMEYSHVQRAYLRNYNFAPLYDHESTEALAMIAHGHLALPRRERKPLLRCDLPIQLDSPDSMVVSTITRAINHQHVISIDYRSHSSGETRRQIVPFALVDNGLRWHIRAYDRRRLRFSDFVISRISNPTIEESVVLTHERWEHDIQWNRIVELELVPHPKRPHPETTLFEYGMVNGISRLRVRAAVAGYFLRRWNVDCSPDHCLEGNEYQLWLKNRETLYGVETLEIAPGYL	not soluble
MGSDKIHHHHHHMIIAGAVPIKGMELIKGPVKLNKDTFEIKNKELPISMGTCALLGAAFKTLEYFGKEDELTFITAGDVGEGDGSLEIYEELHEINDDLTIIHYIKPKISEIIKVDFSKNVIGDAGGMYAGKAAGIGNKFHMFFPDVGELAFLADENSSHPAYVRGFISEIDDQEIPKLIKMAYTQKMPKNMVVKGSKDHIVNEGNIIETVEYPKFEAMECIGGTGDTLTGIASSLIACGFKTEKAGILGCKLNRKLGELVKPRPDTQIYEIIQKIPEALKEFDL	not soluble
MGSDKIHHHHHHMIISVINLKGGSGKTTTAMALATAAARHNRNVSVLDTDPQGDATTWAGDAEDAGETLPFTVDSANIGKLKRLRKTMADDELVIIDCPPAGNVVDVACDVSDFVIVPATQGPFELSHALETAESLDAAGKPYALLLLKVENNKLAGNAVNLIRERGASVFDASVPKRVGMQKVIGHAFPSNLNGYEDVYSELEEVIA	not soluble
MGSDKIHHHHHHMIKAIALLRRKQGLSREQFIAYYETRHAPLIRSLLPGIEDYRRNYVDRTGAFESGIAAIDFDSVTEMRFASRASYDAFLAQAADPEIARLIADDEENVFDRSATRMFVVDETPAALSPDTPSPVLIDELLAERAIRDGLARFARVLDAKAWDALGDVFAADLTFDYGLGEQVGLEALTVNMRRFLDVCGPSQHLIGSIMITVDPGLQSATSRAYVRARHQRAGNSGGPVFDSNGEYVDRWECRAEGWRIVRRDALWQTQSGEAAIIWDGSPAAG	not soluble
